% of … [SEQ ID NO: 124] Reaction Velocity data for one substance are collected here from patent publication US20090149389A1.

This assay deals with MAPKAP kinase II (MK2) (UniProt P49137). Nature of the assay: cell-based or functional assay.
MAPKAP kinase II (MK2), sequence (P49137 whole entry): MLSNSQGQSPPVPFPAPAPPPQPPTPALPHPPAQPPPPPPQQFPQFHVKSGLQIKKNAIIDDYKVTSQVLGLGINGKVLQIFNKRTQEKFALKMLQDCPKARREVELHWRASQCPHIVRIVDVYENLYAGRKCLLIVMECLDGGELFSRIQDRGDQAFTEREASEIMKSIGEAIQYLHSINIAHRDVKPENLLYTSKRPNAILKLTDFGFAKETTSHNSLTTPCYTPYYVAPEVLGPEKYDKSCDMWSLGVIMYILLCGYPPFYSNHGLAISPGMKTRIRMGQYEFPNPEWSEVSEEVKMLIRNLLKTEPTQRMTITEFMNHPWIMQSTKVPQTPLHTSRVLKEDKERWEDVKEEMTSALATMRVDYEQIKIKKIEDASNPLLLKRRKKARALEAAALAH

With KALNRdQLGVAA (peptide), the % of … [SEQ ID NO: 124] Reaction Velocity at an Inhibitor Concentration of 100 µM is 276%.
